Test results reported in article doi:10.1101/2025.02.24.639830.

Tested on: LeuO (Escherichia coli (ASKA library overexpression strain))
Test: EMSA

In the case of leuLABCD promoter region EMSA probe, the K half was 25 nM.
